Changes are numbered by the printed parent chain. In names and notes the source's numbering stands.
Key:
[1] = biological target: T1, human neutrophil elastase (human, UniProt P08246 30-247, limits assumed); assay: cell-based or functional assay
T1 sequence (looked up): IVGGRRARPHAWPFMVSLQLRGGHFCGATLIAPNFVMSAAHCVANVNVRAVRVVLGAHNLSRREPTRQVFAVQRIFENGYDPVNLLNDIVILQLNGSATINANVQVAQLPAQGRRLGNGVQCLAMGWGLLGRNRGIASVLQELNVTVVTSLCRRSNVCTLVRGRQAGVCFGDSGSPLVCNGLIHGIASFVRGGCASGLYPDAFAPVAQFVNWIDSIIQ

human α-thrombin = human α-thrombin (human, UniProt P00734 328-363; P00734 364-622); assay: pseudo-first-order thrombin inhibition kinetics, residual activity with S-2238, 25 C, polybrene
Description: (§1) Forty μL aliquots of ATIII samples at varying concentrations (450 nM, 300 nM, 150 nM) in PNE-PEG plus 50 μL polybrene (to neutralize any contaminating heparin) were preloaded into quadruplicate wells of a low-binding 96-well assay plate (Corning). The plate was maintained at 25° C., and 20 μL aliquots of 30 nM human thrombin or 15 nM human factor Xa were added to each of the four wells at successive 5 minute intervals. Reactions were quenched 5 minutes after addition of enzyme to the last of the wells by the adding 100 μL of 1.5 mM chromogenic substrate (S-2238 for thrombin; S-2765 for factor Xa). Residual enzyme activity was measured on a BioTek ELS11X kinetic plate reader controlled by a Macintosh SE with Deltasoft software. Initial rates of chromogenic substrate cleavage were monitored at 405 nm.

human factor Xa = biological target: T2, human factor Xa (human, UniProt P00742 41-179; P00742 235-488, limits assumed); assay: pseudo-first-order factor Xa inhibition kinetics, residual activity with S-2765, 25 C, polybrene
T2 construct: that the active enzyme has two chains is from general knowledge
Description: as §1

Human Cathepsin G = biological target: T3, Human Cathepsin G (human, UniProt P08311 21-244); assay: cell-based or functional assay
T3 sequence (looked up): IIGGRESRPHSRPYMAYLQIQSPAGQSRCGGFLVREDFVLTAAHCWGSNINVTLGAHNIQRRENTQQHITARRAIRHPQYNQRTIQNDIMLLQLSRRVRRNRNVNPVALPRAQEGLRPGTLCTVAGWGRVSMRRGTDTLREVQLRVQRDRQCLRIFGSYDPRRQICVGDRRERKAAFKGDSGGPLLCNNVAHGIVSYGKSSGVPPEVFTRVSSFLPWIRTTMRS

T2 sequence (P00742 41-179 limits assumed, chain 1 of 2): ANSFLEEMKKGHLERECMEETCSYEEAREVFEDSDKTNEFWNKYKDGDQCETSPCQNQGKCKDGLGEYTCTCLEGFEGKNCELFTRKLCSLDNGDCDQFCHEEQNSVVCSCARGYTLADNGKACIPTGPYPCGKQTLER
T2 sequence (P00742 235-488 limits assumed, chain 2 of 2): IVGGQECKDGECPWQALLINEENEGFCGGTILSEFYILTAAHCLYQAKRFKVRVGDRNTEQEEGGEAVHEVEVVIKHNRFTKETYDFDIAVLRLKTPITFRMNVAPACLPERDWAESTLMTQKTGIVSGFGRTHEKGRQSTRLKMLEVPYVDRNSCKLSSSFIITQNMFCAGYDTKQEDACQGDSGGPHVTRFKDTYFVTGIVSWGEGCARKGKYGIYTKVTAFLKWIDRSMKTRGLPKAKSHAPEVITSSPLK

B1: 5EA modified ATIII (on human ATIII.N135A background) (other)
chain: HGSPVDICTAKPRDIPMNPMCIYRSPEKKATEDEGSEQKIPEATNRRVWELSKANSRFATTFYQHLADSKNDNDNIFLSPLSISTAFAMTKLGACNDTLQQLMEVFKFDTISEKTSDQIHFFFAKLNCRLYRKAAKSSKLVSANRLFGDKSLTFNETYQDISELVYGAKLQPLDFKENAEQSRAAINKWVSNKTEGRITDVIPSEAINELTVLVLVNTIYFKGLWKSKFSPENTRKELFYKADGESCSASMMYQEGKFRYRRVAEGTQVLELPFKGDDITMVLILPKPEKSLAKVEKELTPEVLQEWLDELEEMMLVVHMPRFRIEDGFSLKEQLQDMGLVDLFSPEKSKLPGIVAEGRDDLYVSDAFHKAFLEVNEEGSEAAASTAVEAAGRSLNPNRVTFKANRPFLVFIREVPLNTIIFMGRVANPCVK
notes: Recombinant, baculovirus/Sf9, N135A background; also called AT.5EA
[1]
  HNE resistance T1/2, min: 3.2 min
Human α-thrombin
  kapp (apparent second-order rate constant of association): 600 M⁻¹ s⁻¹
Human factor Xa
  kapp (apparent second-order rate constant of association): 3100 M⁻¹ s⁻¹

B2: F2A′ modified ATIII (on human ATIII.N135A background) (other)
chain: B1 chain with A387Q, V388T, E389P, A390P, A391N
[1]
  HNE resistance T1/2, min: 2.6 min

B3: 13 A modified ATIII (on human ATIII.N135A background) (other)
chain: B1 chain with A390G
notes: Recombinant, baculovirus/Sf9, N135A background; also called AT.13.A
[1]
  HNE resistance T1/2, min: 2.1 min
Human α-thrombin
  kapp (apparent second-order rate constant of association): 200 M⁻¹ s⁻¹
Human factor Xa
  kapp (apparent second-order rate constant of association): 500 M⁻¹ s⁻¹

B4: Bb.C modified ATIII (on human ATIII.N135A background) (other)
chain: B1 chain with T386E, A387E, V388G, A391S
modifications: Sf9-expressed glycoprotein: N-glycans expected at Asn 96, 155 and 192 (written N); Asn135 site removed by N135A.
[1]
  HNE resistance T1/2, min: 437 min

B5: 7EVEA modified ATIII (on human ATIII.N135A background) (other)
chain: B1 chain with A387E
notes: Recombinant, baculovirus/Sf9, N135A background; also called AT.7EVEA
[1]
  HNE resistance T1/2, min: 5.6 min
Human α-thrombin
  kapp (apparent second-order rate constant of association): 600 M⁻¹ s⁻¹
Human factor Xa
  kapp (apparent second-order rate constant of association): 4800 M⁻¹ s⁻¹

B6: Aa modified ATIII (on human ATIII.N135A background) (other)
chain: B1 chain with V388E, E389G, A390G, A391G
notes: Recombinant, baculovirus/Sf9, N135A background; also called AT.Aa
[1]
  HNE resistance T1/2, min: 9.1 min
Human α-thrombin
  kapp (apparent second-order rate constant of association): 400 M⁻¹ s⁻¹
Human factor Xa
  kapp (apparent second-order rate constant of association): 400 M⁻¹ s⁻¹

B7: Bb.B modified ATIII (on human ATIII.N135A background) (other)
chain: B1 chain with A387E, V388G, A390G, A391S
notes: Recombinant, baculovirus/Sf9, N135A background; also called AT.Bb.B
Human Cathepsin G
  Cathepsin G resistance T1/2, min: 16.2 min
[1]
  HNE resistance T1/2, min: 44.8 min
Human factor Xa
  kapp (apparent second-order rate constant of association): 700 M⁻¹ s⁻¹

B8: FF modified ATIII (on human ATIII.N135A background) (other)
chain: B1 chain with E389F, A390F
notes: Recombinant, baculovirus/Sf9, N135A background; also called AT.FF
[1]
  HNE resistance T1/2, min: < 2.5 min
Human α-thrombin
  kapp (apparent second-order rate constant of association): 1400 M⁻¹ s⁻¹
Human factor Xa
  kapp (apparent second-order rate constant of association): 3000 M⁻¹ s⁻¹

B9: Bb modified ATIII (on human ATIII.N135A background) (other)
chain: B1 chain with A387E, V388G, E389F, A390F, A391S
notes: Recombinant, baculovirus/Sf9, N135A background; also called AT.Bb; Bb mutant
Human Cathepsin G
  Cathepsin G resistance T1/2, min: 1.4 min
[1]
  HNE resistance T1/2, min: 15.8 min
Human α-thrombin
  kapp (apparent second-order rate constant of association): 3600 M⁻¹ s⁻¹
Human factor Xa
  kapp (apparent second-order rate constant of association): 4500 M⁻¹ s⁻¹

B10: 13.C modified ATIII (on human ATIII.N135A background) (other)
chain: B1 chain with A387E, V388L, A390G
notes: Recombinant, baculovirus/Sf9, N135A background; also called AT.13.C
[1]
  HNE resistance T1/2, min: 10.1 min
Human factor Xa
  kapp (apparent second-order rate constant of association): 5100 M⁻¹ s⁻¹

B11: 13.B modified ATIII (on human ATIII.N135A background) (other)
chain: B1 chain with A387E, A390G
notes: Recombinant, baculovirus/Sf9, N135A background; also called AT.13.B
[1]
  HNE resistance T1/2, min: 7.6 min
Human factor Xa
  kapp (apparent second-order rate constant of association): 2800 M⁻¹ s⁻¹

B12: Bb.A modified ATIII (on human ATIII.N135A background) (other)
chain: B1 chain with A387E, V388G, A391S
notes: Recombinant, baculovirus/Sf9, N135A background; also called AT.Bb.A
Human Cathepsin G
  Cathepsin G resistance T1/2, min: > 45 min
[1]
  HNE resistance T1/2, min: 27.4 min
Human α-thrombin
  kapp (apparent second-order rate constant of association): 500 M⁻¹ s⁻¹
Human factor Xa
  kapp (apparent second-order rate constant of association): 6200 M⁻¹ s⁻¹

B13: 13.D modified ATIII (on human ATIII.N135A background) (other)
chain: B1 chain with V388L, A390G
notes: Recombinant, baculovirus/Sf9, N135A background; also called AT.13.D
[1]
  HNE resistance T1/2, min: 2.6 min
Human factor Xa
  kapp (apparent second-order rate constant of association): 3300 M⁻¹ s⁻¹

B14: LEAI modified ATIII (on human ATIII.N135A background) (other)
chain: B1 chain with V388L, A391I
notes: substitutions derived against S T A V V I A G R with the numbering of footnote c; also called AT3.LEAI
Human Cathepsin G
  Cathepsin G resistance T1/2, min: 6.1 min
[1]
  HNE resistance T1/2, min: 2.8 min
Human α-thrombin
  kapp (apparent second-order rate constant of association): 3600 M⁻¹ s⁻¹
Human factor Xa
  kapp (apparent second-order rate constant of association): 7000 M⁻¹ s⁻¹

B15: Bb.D modified ATIII (on human ATIII.N135A background) (other)
chain: B1 chain with T386E, A387E, V388G, A390G, A391S
notes: Recombinant, baculovirus/Sf9, N135A background; also called AT.Bb.D
[1]
  HNE resistance T1/2, min: > 45 min
Human α-thrombin
  kapp (apparent second-order rate constant of association): 100 M⁻¹ s⁻¹
